Paper PMC10793455 (bioRxiv, 2023)

Key:
[1] = molecular target: T1, F-actin (rabbit skeletal muscle actin filaments) (rabbit, UniProt P68135 1-377, methylated His73 (His73me)); assay: cryo-EM structure
[2] = molecular target: T1, F-actin (rabbit skeletal muscle actin …); assay: other fluorescence titration
[3] = molecular target: T1, F-actin (rabbit skeletal muscle actin …); assay: fluorescence polarisation
[4] = molecular target: Alexa-488 labeled F-actin (rabbit skeletal muscle actin) (rabbit, UniProt P68135 1-377); assay: single-molecule TIRF microscopy
[5] = molecular target: T1, F-actin (rabbit skeletal muscle actin …); assay: fluorescence polarisation; remark: listed apart in the source
[6] = molecular target: T1, F-actin (rabbit skeletal muscle actin …); assay: fluorescence polarisation; remark: listed apart in the source

B1: SipAC (SipA residues 425–685), unlabeled (domain or fragment)
chain: TGETTSFDEVDGVTSKSIIGKPVQATVHGVDDNKQQSQTAEIVNVKPLASQLAGVENVKTDTLQSDTTVITGNKAGTTDNDNSQTDKTGPFSGLKFKQNSFLSTVPSVTNMHSMHFDARETFLGVIRKALEPDTSTPFPVRRAFDGLRAEILPNDTIKSAALKAQCSDIDKHPELKAKMETLKEVITHHPQKEKLAEIALQFAREAGLTRLKGETDYVLSNVLDGLIGDGSWRAGPAYESYLNKPGVDRVITTVDGLHMQR
For B1, the “stoichiometry N” value [1] was 0.5 SipAC per actin subunit, the Kd [2] was 0.18 nM and the Kd [3] was 5 nM.

B2: Alexa-647-SipAC (SipA residues 425–685 labeled with Alexa-647) (domain or fragment)
chain: TGETTSFDEVDGVTSKSIIGKPVQATVHGVDDNKQQSQTAEIVNVKPLASQLAGVENVKTDTLQSDTTVITGNKAGTTDNDNSQTDKTGPFSGLKFKQNSFLSTVPSVTNMHSMHFDARETFLGVIRKALEPDTSTPFPVRRAFDGLRAEILPNDTIKSAALKAQCSDIDKHPELKAKMETLKEVITHHPQKEKLAEIALQFAREAGLTRLKGETDYVLSNVLDGLIGDGSWRAGPAYESYLNKPGVDRVITTVDGLHMQR
modifications: Alexa-647 label
B2 was tested, and the Kd [4] was 0.1 nM.

B3: SipAC-Core (SipA residues 512–658), unlabeled (domain or fragment)
chain: TGPFSGLKFKQNSFLSTVPSVTNMHSMHFDARETFLGVIRKALEPDTSTPFPVRRAFDGLRAEILPNDTIKSAALKAQCSDIDKHPELKAKMETLKEVITHHPQKEKLAEIALQFAREAGLTRLKGETDYVLSNVLDGLIGDGSWRA
B3 showed a Kd [2] of 81 nM.

B4: FM-SipAC (SipA residues 425–685 labeled with fluorescein maleimide) (domain or fragment)
chain: TGETTSFDEVDGVTSKSIIGKPVQATVHGVDDNKQQSQTAEIVNVKPLASQLAGVENVKTDTLQSDTTVITGNKAGTTDNDNSQTDKTGPFSGLKFKQNSFLSTVPSVTNMHSMHFDARETFLGVIRKALEPDTSTPFPVRRAFDGLRAEILPNDTIKSAALKAQCSDIDKHPELKAKMETLKEVITHHPQKEKLAEIALQFAREAGLTRLKGETDYVLSNVLDGLIGDGSWRAGPAYESYLNKPGVDRVITTVDGLHMQR
modifications: fluorescein maleimide (FM) label
Binder B4 has a Kd [5] of roughly 0.9 nM.

B5: FM-SipAC-ΔArm2 (SipA residues 425–658 labeled with fluorescein maleimide) (domain or fragment)
chain: TGETTSFDEVDGVTSKSIIGKPVQATVHGVDDNKQQSQTAEIVNVKPLASQLAGVENVKTDTLQSDTTVITGNKAGTTDNDNSQTDKTGPFSGLKFKQNSFLSTVPSVTNMHSMHFDARETFLGVIRKALEPDTSTPFPVRRAFDGLRAEILPNDTIKSAALKAQCSDIDKHPELKAKMETLKEVITHHPQKEKLAEIALQFAREAGLTRLKGETDYVLSNVLDGLIGDGSWRA
modifications: fluorescein maleimide (FM) label
Work on B5 yielded a Kd [6] of 120 nM.
